Data reported in PMC9828230.

Columns and labels:
Test in all cases: SPR; Biacore X100; biotinylated histone 3 peptides immobilised on a Biotin CAPture chip (about 10 RU); PHD finger flowed at 10 μl/min, 0.39-400 μM; 300 mM NaCl, 10 mM Tris pH 8, 0.05% Tween 20, 0.1 mM TCEP; equilibrium binding isotherm model
[1] = target: histone 3 peptide dimethylated at lysine 4 (H3K4me2)
[2] = target: histone 3 peptide monomethylated at lysine 4 (H3K4me1)
[3] = target: histone 3 peptide trimethylated at lysine 4 (H3K4me3)

Kd [1]: 54.5 µM
Kd [2]: 126 µM
Kd [3]: 31 µM
Substance: MtING1PHD, PHD finger of Medicago ING1 (M180-K247) (domain or fragment)
